In the supplement of paper PMC7877785:
± gives the uncertainty stated by the source.

Assay: self-splicing fitness, log relative to wild type (ln ratio); higher = more splicing; Tetrahymena group I intron in knt gene, E. coli kanamycin selection, DiMSum; sequences stand for … in CUCUCU…GGAGGGAAAAGUUAUCAGGCAUGCACCUGGUAGCUAGUCUUUAAACCAAUAGAUUGCAUCGGUUUAAAAGGCAAGACCGUCAAAUUGCGGGAAAGGGGUCAACAGCCGUUCAGUACCAAGUCUCAGGGGAAACUUUGAGAUGGCCUUGCAAAGGGUAUGGUAAUAAGCUGACGGACAUGGUCCUAACCACGCAGCCAAGUCCUAAGUCAACAGAUCUUCUGUUGAUAUGGAUGCAGUUCACAGACUAAAUGUCGGUCGGGGAAGAUGUAUUCUUCUCAUAAGAUAUAGUCGGACCUCUCCUUAAUGGGAGCUAGCGGAUGAAGUGAUGCAACACUGGAGCCGCUGGGAACUAAUUUGUAUGCGAAAGUAUAUUGAUUAGUUUUGGAGUACUCGUGGUCG
Procedure, shortened: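 Six replicate transformations of E. coli BL21(DE3) with a pET-22b(+) library were grown overnight at 37°C or 30°C. The library randomised all eight P1ex-region intron nucleotides, the intron lying in the knt kanamycin-resistance gene, and plates were LB agar with or without 25 μg/mL kanamycin plus 100 μg/mL carbenicillin, 50 μM IPTG and 0.2% rhamnose. Pooled colonies were amplicon-sequenced on an Illumina HiSeq 2500, and fitness is the DiMSum error-weighted combination of wild-type-normalised replicate fold changes, kanamycin versus none.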

Sequence | self-splicing fitness (ln) (30 °C) | self-splicing fitness (ln) (37 °C)
UAUGAGCAAUAUUACGAUAG | -2.31 ± 0.35 | -0.767 ± 0.38
UAUGAGCAAUAUUACGAUAU | -3.47 ± 0.26 | -2.02 ± 0.36
UAUGAGCAAUAUUACGAUCG | -1.79 ± 0.12 | -0.568 ± 0.12
UAUGAGCAAUAUUACGAUGG | -3.59 ± 0.29 | -0.796 ± 0.23
UAUGAGCAAUAUUACGCAUG | -2.53 ± 0.11 | -1.76 ± 0.15
UAUGAGCAAUAUUACGCCUU | -3.19 ± 0.29 | -2.11 ± 0.34
UAUGAGCAAUAUUACGCGAA | -1.62 ± 0.18 | -0.947 ± 0.32
UAUGAGCAAUAUUACGGCAC | -2.09 ± 0.28 | –
UAUGAGCAAUAUUACGGCUU | – | -1.62 ± 0.32
UAUGAGCAAUAUUACGGUCA | -2.22 ± 0.25 | -1.65 ± 0.25
UAUGAGCAAUAUUACGUCAG | -2.82 ± 0.14 | -2.51 ± 0.2
UAUGAGCAAUAUUACGUCCU | -2.35 ± 0.23 | -2.19 ± 0.49
UAUGAGCAAUAUUACGUCGG | -2.86 ± 0.23 | -2.18 ± 0.2
UAUGAGCAAUAUUACGUCUA | -0.497 ± 0.1 | -0.408 ± 0.13
UAUGAGCAAUAUUACGUGCU | -3.7 ± 0.32 | -2.39 ± 0.34
UAUGAGCAAUAUUACGUUGA | -2.96 ± 0.26 | -1.25 ± 0.17
UAUGAGCAAUAUUACGUUUA | -2.59 ± 0.24 | -1.94 ± 0.14
UAUGAGCAAUAUUACGUUUC | -3.66 ± 0.4 | -1.67 ± 0.32
UAUUAGCAAUAUUACGACAC | -1.54 ± 0.14 | -1.92 ± 0.21
UAUUAGCAAUAUUACGCACC | -2.77 ± 0.26 | -0.337 ± 0.2

Sequence | self-splicing fitness (ln) (30 °C) | self-splicing fitness (ln) (37 °C)
UAUUAGCAAUAUUACGCCUA | -0.107 ± 0.15 | -0.038 ± 0.14
UAUUAGCAAUAUUACGGAAG | -2.63 ± 0.31 | -1.9 ± 0.25
UAUUAGCAAUAUUACGGAUG | -0.629 ± 0.09 | -0.294 ± 0.12
UAUUAGCAAUAUUACGGCUA | -0.404 ± 0.15 | 0.399 ± 0.14
UAUUAGCAAUAUUACGGGCC | -2.84 ± 0.42 | –
UAUUAGCAAUAUUACGGGGA | -2.39 ± 0.22 | -0.989 ± 0.18
UAUUAGCAAUAUUACGGUUU | -3.75 ± 0.37 | -2.08 ± 0.2
UAUUAGCAAUAUUACGUAAG | -2.05 ± 0.18 | -1.41 ± 0.25
UAUUAGCAAUAUUACGUCAG | -1.84 ± 0.1 | -0.992 ± 0.12
UAUUAGCAAUAUUACGUCCG | -0.732 ± 0.16 | -0.925 ± 0.19
UAUUAGCAAUAUUACGUCGU | -2.82 ± 0.28 | -3.02 ± 0.32
UAUUAGCAAUAUUACGUCUU | -1.86 ± 0.14 | -0.681 ± 0.15
UCAAAGCAAUAUUACGAACA | -1.41 ± 0.18 | -0.524 ± 0.15
UCAAAGCAAUAUUACGACUU | -4 ± 0.23 | -2.36 ± 0.17
UCAAAGCAAUAUUACGAGGG | -2.11 ± 0.12 | -1.03 ± 0.12
UCAAAGCAAUAUUACGAGUU | -4.25 ± 0.31 | -2.28 ± 0.19
UCAAAGCAAUAUUACGCAGG | -4.07 ± 0.2 | -2.2 ± 0.14
UCAAAGCAAUAUUACGCCCA | -1.32 ± 0.14 | -0.49 ± 0.16
UCAAAGCAAUAUUACGCCGC | -3.89 ± 0.39 | -1.67 ± 0.42
